The source of these data is patent US20210347891A1.

The target of assay [1] is single chain FcRn-β2m-his (human scFcRn, Acro Biosystems Cat. No. FCM-H5286) (human) (UniProt P55899). Briefly: SPR, antibody on CM5 chip, scFcRn 400-25 nM, pH 5.8 PBS. Background: Surface plasmon resonance follows binding to a sensor surface in real time, without labels.
Assay [2] shares this target. The experiment in a line: SPR, antibody on CM5 chip, scFcRn 400-25 nM, pH 5.8 PBS, 1:1 Langmuir.
For assay [3] the target is unchanged. The experiment in a line: SPR, antibody on CM5 chip, scFcRn, pH 5.8.

Positions count from the first letter of the chain named. In names and notes the source's numbering stands.

Sequence of single chain FcRn-β2m-his (human scFcRn, Acro Biosystems Cat. No. FCM-H5286) (human) (P55899 other isoform, or with tags, fused parts or gaps): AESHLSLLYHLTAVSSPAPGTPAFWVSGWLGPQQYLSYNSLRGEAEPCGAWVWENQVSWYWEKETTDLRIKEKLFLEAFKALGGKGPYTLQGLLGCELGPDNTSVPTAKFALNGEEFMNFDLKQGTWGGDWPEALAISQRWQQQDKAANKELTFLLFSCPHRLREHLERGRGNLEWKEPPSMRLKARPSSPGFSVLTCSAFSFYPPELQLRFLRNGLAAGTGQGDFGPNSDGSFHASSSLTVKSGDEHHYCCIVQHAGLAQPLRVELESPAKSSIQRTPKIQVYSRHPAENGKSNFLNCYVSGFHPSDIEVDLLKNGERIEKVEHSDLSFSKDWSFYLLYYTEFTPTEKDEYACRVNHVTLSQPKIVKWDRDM

B1: Herceptin-IgG2 (wild type IgG2 with the Fab of trastuzumab) (antibody, part only; not given: Fab (trastuzumab), not shown: another chain or arm of the molecule)
Fc: ERKCCVECPPCPAPPVAGPSVFLFPPKPKDTLMISRTPEVTCVVVDVSHEDPEVQFNWYVDGVEVHNAKTKPREEQFNSTFRVVSVLTVVHQDWLNGKEYKCKVSNKGLPAPIEKTISKTKGQPREPQVYTLPPSREEMTKNQVSLTCLVKGFYPSDISVEWESNGQPENNYKTTPPMLDSDGSFFLYSKLTVDKSRWQQGNVFSCSVMHEALHNHYTQKSLSLSPGK
modifications: Glycosylated at N297 (HEK293F expression). The Fc is a disulfide-linked homodimer in the full IgG.
As to B1, in assay [1], the Kd (commonly the concentration at which binding is half-saturated) is 2140 nM. That is a single-digit micromolar value.

B2: Herceptin-IgG2-DHS (V309D, Q311H, N434S) (antibody, part only; not given: trastuzumab Fab, not shown: another chain or arm of the molecule)
Fc: B1 Fc with V90D, Q92H, N215S
modifications: Glycosylated at N297 (HEK293F expression). The Fc is a disulfide-linked homodimer in the full IgG.
As to B2, in assay [2], the Kd is 377 nM; the koff (in general, the first-order rate constant of dissociation) stood at 0.086 s⁻¹; the kon (as a rule, the rate constant with which the complex forms) is 227000 M⁻¹ s⁻¹. In addition, the fold enhanced KD comparing with wild type IgG2 in assay [3] worked out at 5.7 fold.

B3: Herceptin-IgG3 (wild type IgG3 with the Fab of trastuzumab) (antibody, part only; not given: trastuzumab Fab; H435 or R435 unclear, not shown: another chain or arm of the molecule)
Fc: ELKTPLGDTTHTCPRCPEPKSCDTPPPCPRCPEPKSCDTPPPCPRCPEPKSCDTPPPCPRCPAPELLGGPSVFLFPPKPKDTLMISRTPEVTCVVVDVSHEDPEVQFKWYVDGVEVHNAKTKPREEQYNSTFRVVSVLTVLHQDWLNGKEYKCKVSNKALPAPIEKTISKTKGQPREPQVYTLPPSREEMTKNQVSLTCLVKGFYPSDIAVEWESSGQPENNYNTTPPMLDSDGSFFLYSKLTVDKSRWQQGNIFSCSVMHEALHNHFTQKSLSLSPGK
modifications: Glycosylated Fc homodimer (HEK293F); one chain is given.
B3 came in with a Kd in assay [1] of 4080 nM.

B4: Herceptin-IgG3-DHS (L309D, Q311H, N434S) (antibody, part only; not given: trastuzumab Fab, not shown: another chain or arm of the molecule)
Fc: B3 Fc with L141D, Q143H, N266S
modifications: Glycosylated Fc homodimer (HEK293F); one chain is given.
In assay [2], B4 displayed a Kd of 739 nM, a koff of 0.126 s⁻¹ and a kon of 170000 M⁻¹ s⁻¹. Further, the fold enhanced KD comparing with wild type IgG3 in assay [3] turned out to be 5.5 fold.

B5: Herceptin-IgG4-DHS (L309D, Q311H, N434S) (antibody, part only; not given: trastuzumab Fab, not shown: another chain or arm of the molecule)
Fc: ESKYGPPCPSCPAPEFLGGPSVFLFPPKPKDTLMISRTPEVTCVVVDVSQEDPEVQFNWYVDGVEVHNAKTKPREEQFNSTYRVVSVLTVDHHDWLNGKEYKCKVSNKGLPSSIEKTISKAKGQPREPQVYTLPPSQEEMTKNQVSLTCLVKGFYPSDIAVEWESNGQPENNYKTTPPVLDSDGSFFLYSRLTVDKSRWQEGNVFSCSVMHEALHSHYTQKSLSLSLGK
modifications: Glycosylated Fc homodimer (HEK293F); one chain is given.
In assay [2], B5 returned a Kd of 832 nM, a koff of 0.151 s⁻¹ and a kon of 281000 M⁻¹ s⁻¹. Moreover, the fold enhanced KD comparing with wild type IgG4 in assay [3] was determined as 3 fold.
